Laboratory results taken from paper doi:10.1101/2021.09.24.461649 (bioRxiv, 2021).

B1: EspC-Δ10 truncated mutant (domain or fragment)
chain: MMTENLTVQPERLGVLASHHDNAAVDASSGVEAAAGLGESVAITHGPYCSQFNDTLNVYLTAHNALGSSLHTAGVDLAKSLRIAAKIYSEADEA
B2: EspC-Δ20 truncated mutant (domain or fragment)
chain: MMTENLTVQPERLGVLASHHDNAAVDASSGVEAAAGLGESVAITHGPYCSQFNDTLNVYLTAHNALGSSLHTAGVDLAKSLRIA
B3: EspC-Δ5 truncated mutant (domain or fragment)
chain: MTENLTVQPERLGVLASHHDNAAVDASSGVEAAAGLGESVAITHGPYCSQFNDTLNVYLTAHNALGSSLHTAGVDLAKSLRIAAKIYSEADEAWRKAID
B4: EspC (ESX-1 secreted protein C), wild type (natural protein)
chain: MMTENLTVQPERLGVLASHHDNAAVDASSGVEAAAGLGESVAITHGPYCSQFNDTLNVYLTAHNALGSSLHTAGVDLAKSLRIAAKIYSEADEAWRKAIDGLFT

Target: the molecule itself
Test: SEC

Binder	stoichiometry N
B1	6
B2	6
B3	6

Target: EccA1 ATPase, wild type (M. tuberculosis H37Rv, UniProt P9WPH9 1-573)
Sequence (P9WPH9 whole entry): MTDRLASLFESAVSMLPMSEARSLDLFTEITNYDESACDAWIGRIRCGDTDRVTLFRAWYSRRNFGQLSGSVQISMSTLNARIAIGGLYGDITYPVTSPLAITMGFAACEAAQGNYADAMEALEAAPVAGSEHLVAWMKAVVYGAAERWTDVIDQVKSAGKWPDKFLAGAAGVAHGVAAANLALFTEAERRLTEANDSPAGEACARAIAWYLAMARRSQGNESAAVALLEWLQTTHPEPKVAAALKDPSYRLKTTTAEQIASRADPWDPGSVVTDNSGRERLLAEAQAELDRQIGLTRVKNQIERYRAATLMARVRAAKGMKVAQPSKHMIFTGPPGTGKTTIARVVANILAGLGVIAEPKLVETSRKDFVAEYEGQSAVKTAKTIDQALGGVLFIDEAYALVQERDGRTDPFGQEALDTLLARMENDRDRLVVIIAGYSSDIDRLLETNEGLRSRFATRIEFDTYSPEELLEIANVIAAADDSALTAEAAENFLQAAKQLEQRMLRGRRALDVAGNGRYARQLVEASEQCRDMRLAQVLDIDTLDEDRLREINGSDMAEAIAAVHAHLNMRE
Test: SPR

Binder	Kd [µM]
B1	~8.1
B4	~0.14
B3	~6.7
